Data from article PMC5386136.

Assays:
[1] = target: SHANK3 SPN-ARR (residues 1-348) (rat); experiment: ITC
[2] = target: SHANK3 SPN(R12C)-ARR mutant (rat); experiment: ITC

Rap1b (residues 1-166) (from UniProt P61224 1-166) (natural protein)
Kd [1]: 200 nM | Kd [2]: 2200 nM
